Results reported in US20190064149.

B1: MT6-MMP (protein)
chain: YALSGSVWKKRTLTWRVRSFPQSSQLSQETVRVLMSYALMAWGMESGLTFHEVDSPQGQEPDILIDFARAFHQDSYPFDGLGGTLAHAFFPGEHPISGDTHFDDEETWTFGSKDGEGTDLFAVAVHEFGHALGLGHSSAPNSIMRPFYQGPVGDPDKYRLSQDDRDGLQQLYGKAPQTPYDKPTRKPLAPPPQPPASPTHSPSFPIPDRCEGNFDAIANIRGETFFFKGPWFWRLQPSGQLVSPRPARLHRFWEGLPAQVRVVQAAYARHRDGRILLFSGPQFWVFQDRQLEGGARPLTELGLPPGEEVDAVFSWPQNGKTYLVRGRQYWRYDEAAARPDPGYPRDLSLWEGAPPSPDDVTVSNAGDTYFFKGAHYWRFPKNSIKTEPDAPQPMGPNWLDCPAPSSGPRAPRPPKATPVSETCDCQCELNQA
B2: MT4-MMP (protein)
chain: QAPAPTKWNKRNLSWRVRTFPRDSPLGHDTVRALMYYALKVWSDIAPLNFHEVAGSAADIQIDFSKADHNDGYPFDGPGGTVAHAFFPGHHHTAGDTHFDDDEAWTFRSSDAHGMDLFAVAVHEFGHAIGLSHVAAAHSIMRPYYQGPVGDPLRYGLPYEDKVRVWQLYGVRESVSPTAQPEEPPLLPEPPDNRSSAPPRKDVPHRCSTHFDAVAQIRGEAFFFKGKYFWRLTRDRHLVSLQPAQMHRFWRGLPLHLDSVDAVYERTSDHKIVFFKGDRYWVFKDNNVEEGYPRPVSDFSLPPGGIDAAFSWAHNDRTYFFKDQLYWRYDDHTRHMDPGYPAQSPLWRGVPSTLDDAMRWSDGASYFFRGQEYWKVLDGELEVAPGYPQSTARDWLVCGDSQADGSVAAGVDAAEGPRAPPGQHDQSRSEDGYEVCSCTS

Biological target: EphA2 having Myc-labeled C-terminal

| Protein | EphA2 processed fragment, western blotting |
| --- | --- |
| B1 | a processed fragment of EphA2 (small arrow) was detected only in the MT1-MMP-introduced cells |
| B2 | a processed fragment of EphA2 (small arrow) was detected only in the MT1-MMP-introduced cells |
